Data set [1] concerns the target T1, Trbp111 (Aquifex aeolicus, UniProt O66738 1-111). As to the kind of experiment: competition fluorescence polarization; ITC (Arc1p): 25 mM Tris-HCl pH 7.4, 150 mM NaCl, 2 mM MgCl2, 25 °C. FP and competition FP: 25 mM Tris-HCl pH 7.5, 150 mM NaCl (Arc1p) or 50 mM NaCl (Trbp111), 2 mM MgCl2, room temperature. The settings on record: protein: recombinant, tags: His-MBP removed (PreScission), chain copies: 2. A general note: Fluorescence polarisation rises when a labelled molecule tumbles more slowly, as on binding a larger partner.

In data set [2] the target is T1, Trbp111. Briefly: competition FP; vs fluorescein-tRNATyr; FP: 25 mM Tris-HCl pH 7.5, 2 mM MgCl2, 50 mM NaCl (Trbp111) or 150 mM NaCl (Arc1p), room temperature; ITC: 25 mM Tris-HCl pH 7.4, 150 mM NaCl, 2 mM MgCl2, 25 C. The settings on record: protein: recombinant, tags: His-MBP removed (PreScission), chain copies: 2.
For data set [3], the target named is T2, Arc1p dN (Saccharomyces cerevisiae, UniProt P46672 132-376, del1-131).
T2 sequence: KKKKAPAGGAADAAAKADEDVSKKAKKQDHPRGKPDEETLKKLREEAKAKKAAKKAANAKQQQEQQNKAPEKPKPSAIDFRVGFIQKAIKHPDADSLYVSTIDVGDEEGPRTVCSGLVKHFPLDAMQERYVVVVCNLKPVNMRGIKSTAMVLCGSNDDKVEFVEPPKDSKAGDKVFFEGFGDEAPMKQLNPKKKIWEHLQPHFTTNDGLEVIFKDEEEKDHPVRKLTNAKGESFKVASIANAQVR
Briefly: competition fluorescence polarization; ITC (Arc1p): 25 mM Tris-HCl pH 7.4, 150 mM NaCl, 2 mM MgCl2, 25 °C. FP and competition FP: 25 mM Tris-HCl pH 7.5, 150 mM NaCl (Arc1p) or 50 mM NaCl (Trbp111), 2 mM MgCl2, room temperature. The following applies: protein: recombinant; tags: His-MBP removed; hairpin.

For data set [4], the target named is T2, Arc1p dN. As to the kind of experiment: competition FP; FP: 25 mM Tris-HCl pH 7.5, 2 mM MgCl2, 50 mM NaCl (Trbp111) or 150 mM NaCl (Arc1p), room temperature; ITC: 25 mM Tris-HCl pH 7.4, 150 mM NaCl, 2 mM MgCl2, 25 C. The following applies: protein: recombinant; tags: His-MBP removed; hairpin.
For data set [5], the target named is T1, Trbp111. Briefly: 2AP fluorescence lifetime; 60 uM protein: 4.73 to 5.76 ns; FP: 25 mM Tris-HCl pH 7.5, 2 mM MgCl2, 50 mM NaCl (Trbp111) or 150 mM NaCl (Arc1p), room temperature; ITC: 25 mM Tris-HCl pH 7.4, 150 mM NaCl, 2 mM MgCl2, 25 C. The following applies: protein: recombinant; tags: His-MBP removed (PreScission); chain copies: 2; label: 2AP; hairpin.
The target in data set [6] is T2, Arc1p dN. Briefly: 2AP fluorescence lifetime; 20 uM protein: 4.76 to 6.2 ns; FP: 25 mM Tris-HCl pH 7.5, 2 mM MgCl2, 50 mM NaCl (Trbp111) or 150 mM NaCl (Arc1p), room temperature; ITC: 25 mM Tris-HCl pH 7.4, 150 mM NaCl, 2 mM MgCl2, 25 C. The settings on record: protein: recombinant; tags: His-MBP removed; label: 2AP; hairpin.
The target of data set [7] is T2, Arc1p dN. As to the kind of experiment: competition FP; FP: 25 mM Tris-HCl pH 7.5, 2 mM MgCl2, 50 mM NaCl (Trbp111) or 150 mM NaCl (Arc1p), room temperature; ITC: 25 mM Tris-HCl pH 7.4, 150 mM NaCl, 2 mM MgCl2, 25 C. The following applies: protein: recombinant; tags: His-MBP removed; hairpin. The source holds these as a separate data set.
The target of data set [8] is T2, Arc1p dN. As to the kind of experiment: 2AP fluorescence lifetime; 20 uM protein: 5.46 to 6.26 ns; FP: 25 mM Tris-HCl pH 7.5, 2 mM MgCl2, 50 mM NaCl (Trbp111) or 150 mM NaCl (Arc1p), room temperature; ITC: 25 mM Tris-HCl pH 7.4, 150 mM NaCl, 2 mM MgCl2, 25 C. The following applies: protein: recombinant; tags: His-MBP removed; label: 2AP; hairpin.
In data set [9] the target is T1, Trbp111. As to the kind of experiment: competition FP; FP: 25 mM Tris-HCl pH 7.5, 2 mM MgCl2, 50 mM NaCl (Trbp111) or 150 mM NaCl (Arc1p), room temperature; ITC: 25 mM Tris-HCl pH 7.4, 150 mM NaCl, 2 mM MgCl2, 25 C. The following applies: protein: recombinant; tags: His-MBP removed (PreScission); chain copies: 2; hairpin.

Changes are numbered by the printed parent chain.

T1 sequence (O66738 entry or part of it): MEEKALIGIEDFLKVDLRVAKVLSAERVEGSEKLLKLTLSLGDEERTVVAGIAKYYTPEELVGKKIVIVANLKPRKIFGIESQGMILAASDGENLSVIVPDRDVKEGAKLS

B1: ssRNA 3'ACCA (ssRNA)
RNA: CCACUCAGGCCUACCA
Turning to B1, the IC50 – broadly, the midpoint of a concentration-inhibition curve – in data set [1] (single strand) amounted to 8.63 ± 0.796 µM; in data set [2] (single strand), 8.2 ± 0.8 µM.

B2: MicroH (structured_RNA)
RNA: AGGCUUUUCAAGUAGGCCUACCA
In the case of B2, the figures for the IC50 in data set [3], in data set [1] (hairpin) and in data set [2] (hairpin) were 4.66 ± 0.769 µM, 7.32 ± 0.991 µM and 7.2 ± 1 µM, respectively. Moreover, the binding signal in data set [4] is roughly 10 fold weaker than tRNA.

B3: MiniH (structured_RNA)
RNA: AGGCUUGGGUGGUUCAAGUCCACUCAGGCCUACCA
Regarding B3, the IC50 in data set [3] worked out at 3.69 ± 0.931 µM; in data set [1] (hairpin), 5.96 ± 1.02 µM; in data set [2] (hairpin) it was 6.5 ± 1 µM. In data set [4], the binding signal was roughly 10 fold weaker than tRNA.

B4: MiniH-AC-2AP-A (structured_RNA)
RNA: B3 RNA with C34A
modifications: 2-aminopurine at position 75
Take B4: the binding result in data set [5] and in data set [6] was “binds” in each case.

B5: MiniH-ACCG (structured_RNA)
RNA: B3 RNA with A35G
For B5, the IC50 in data set [3] is 7.58 ± 2.9 µM. For the same molecule, the binding signal in data set [7] was roughly 2 fold weaker than MiniH.

B6: MiniH-ACC-2AP (structured_RNA)
RNA: B3 RNA
modifications: 2-aminopurine at position 76
B6: in data set [8], the binding result is listed as “binds”.

B7: MiniH-ACCC (structured_RNA)
RNA: B3 RNA with A35C
For the molecule B7, in data set [3], the 50% inhibitory concentration (IC50) stood at 13.2 ± 4.95 µM. The binding signal in data set [7] was roughly 3 fold weaker than MiniH.

B8: MiniH-ACCU (structured_RNA)
RNA: B3 RNA with A35U
For the molecule B8, the IC50 in data set [3] is 11.8 ± 2.67 µM. Besides, in data set [7], the binding signal was roughly 3 fold weaker than MiniH.

B9: MiniH dA73/dC74 (structured_RNA)
RNA: AGGCUUGGGUGGUUCAAGUCCACUCAGGCCUCA
As to B9, the IC50 in [3] amounted to 2.78 ± 0.339 µM; in data set [1] (hairpin), 2.17 ± 0.151 µM. For the same molecule, in data set [9], the binding signal is ~3 fold higher affinity than MiniH.

The record behind these values is article PMC11286949, “Structural basis of tRNA recognition by the widespread OB fold”.
